The values below are quoted from earlier work in paper PMC9583766.

For the data set, the target named is plasma prekallikrein (PK) (Homo sapiens) (UniProt P03952).
Sequence of UniProt P03952 (P03952 20-638): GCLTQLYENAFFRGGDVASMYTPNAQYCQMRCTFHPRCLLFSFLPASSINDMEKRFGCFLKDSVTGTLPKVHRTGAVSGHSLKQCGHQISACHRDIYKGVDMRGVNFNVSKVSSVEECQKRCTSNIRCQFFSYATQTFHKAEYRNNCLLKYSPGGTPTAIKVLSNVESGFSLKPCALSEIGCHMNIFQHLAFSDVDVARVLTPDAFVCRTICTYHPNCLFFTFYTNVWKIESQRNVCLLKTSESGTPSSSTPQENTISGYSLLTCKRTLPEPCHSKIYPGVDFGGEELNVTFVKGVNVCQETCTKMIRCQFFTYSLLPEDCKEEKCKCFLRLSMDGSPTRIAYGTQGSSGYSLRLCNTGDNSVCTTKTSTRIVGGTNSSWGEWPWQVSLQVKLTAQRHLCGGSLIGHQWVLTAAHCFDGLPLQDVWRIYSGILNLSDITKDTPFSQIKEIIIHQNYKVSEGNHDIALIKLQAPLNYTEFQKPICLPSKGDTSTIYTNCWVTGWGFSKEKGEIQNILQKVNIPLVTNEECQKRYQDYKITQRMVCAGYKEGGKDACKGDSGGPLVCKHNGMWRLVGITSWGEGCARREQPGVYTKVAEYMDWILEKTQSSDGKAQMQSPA

Take “high-molecular-weight kininogen (nHK) (from UniProt P01042)”: the Kd was 12 nM.
